Experiment: soluble on expression in E. coli; label from the status in PepcDB or PDB records
In the case of “MGSDKIHHHHHHMNVFPADRIEAMHDAGLDILERLGIKVLLPEARAIFATAGAMVKDDMVYIGRDIVEASLASAPRRIEGRAGAPERDVVLELGSLVFQPGAGAPHATDEVRGRRPGCARDFKELIQLTNHFDVFHMLPPLVEPQDIATNIRHYFTLECQLTESNKFPFIFSRGTPQVTESFEMLRDFRGLSDAEFEAEPRCYTIINTNSPRTLDVPMAQGLIDFARMGQISIVTPFTLMGAMAPITVAGAITLSHAEALAAITLTQLTNPGAPVCYGTFTSNVDMKSGAPAFGTPSHFQASLAAGQLARHIGLPWRSAAGSAANLNDVQAANENQFGLWGCLMAGATVVIHSAGWLEGGLSISYEKLITDAEVLNMVAELCAGAQASDAEIGLDAIEDTAPSGHFFATAQTMARYQTEFYEPIIHDYANFGTWTERGSKDASTRARDVWQGILADPKSPTVNGDRLSALQDDIARRTQAGGAYPES”, the “soluble on expression in E. coli” value is reported as “not soluble”.
In the case of “MGSDKIHHHHHHMNVPFPKRDHGGGLDAAAAEYGGDLEAWLDLSTGINPNAYPVGQLPQDIWGRLPDEGAMARLLDAARSFWSVPDGVEVIAAAGASPLIARMPDMTAFSGAYIPVPTYNEYAAAFAARGRLNDPLNPQNPVHVYVHPNNPDGRMWPGSVIGGRPLTIIDESFCDTVPDKTHMARAAEPGVIILKSFGKFWGLAGLRLGFAIAAPETFARSSSSASLQELMGPWSVSGPALEIGARALQDHAWAEATRVRLGHDAARLDDMLLSAGAEIVGGTTLFRTYAWEQGAEVWQKRLAEHRIWSRIFPYSTNWMRLGLPATDEDWARLDAAL”, the “soluble on expression in E. coli” value is reported as “not soluble”.
In the case of “MGSDKIHHHHHHMNWDNARFFLALARTGTLRGAAAQLNVDQATVGRRIAALEDELSARLFLRTPALYVLTTAGEALLEPAETMERASLTIERRVMGLDEQLAGTVRIATTDSLGKRFVIPAIARLRRRHAGIDVVCVTSTEIANLTRREADLAIRTLRPESPDLIVRRLGHLETGIYASRHYLAERGEPVAGSAFDGHDLVMYQQPVMPTMWDALCGEPTSRGRVMFQTSSTMMLVEAALAGLGIAELPCFRAEAEPELVRLMARRCNHFDVWLVAHADLYKTARVQAVIEAVVEEFATAAPSTR”, the “soluble on expression in E. coli” value is reported as “not soluble”.
For “MGSDKIHHHHHHMNYSHFVGLDVGKKTFDASLMSADEKELSHKSFDNTPTGIQSLLDWIAGYHLSLSKLLFCAENMGSYVTELSVSSVSMGFSLALVCPLTIKKSIGLQRGKNDRIDAKRIANYAVLHYRKLELYKLPDKDLVRLRGWIIIRDNLVKQKVSSIKLLETFSWMAKLADVTESISFLEEQLKSIKERILEVEEDMEQLIAASTSLYTNYLLLRSIKGIGIINAIVLLCVTDNFQRFDNPRKFACYCGVAPFEHTSGISIRGKTQTSSLANKEVKVYLTRAAITAISWDPQMKAYYKRKIAEGKHKASVINAVRAKIIARSFAVIRRQTPFVTLAV”, the “soluble on expression in E. coli” value was “not soluble”.
In the case of “MGSDKIHHHHHHMPAALPIKPPFKPRDISIVGAGVAGASLALSLLRRGHKVTLYCADAAPGIGASGNRQGAIYPLLTPEDDHLTRLFVPAFLYAKRFVESLAHHPLPFDFCGVLQTGHDERATERIEKLLSKTWPKQVAVRVDADEANHIAGVAIDKGGIYYPQGGWVSPAKLCEAAIEEAKTMGLECHFDVNITSITRADEGWRLNTQTGEIDAHELVLATGHRITELAQTKSLQLAPFRGQVSHVPTRGKLEQLKTVLCAHGYFTPRDASSGSHCMGASYVRGDTSVEYREQEQQENLHKMQESYPGKDWVEYLDISEGSARAGIRMVSRDHLPMAGAAPDVAAIQTQYQAIGHGPKGAQYWQTHAAPVHPGLYIFSGLGSRGLSSGPLIAECLADSLSGTLPVLDGDVMEALNPNRMWLRKLKKGKALD”, the “soluble on expression in E. coli” value is reported as “not soluble”.
For “MGSDKIHHHHHHMPASKIYLLDYGWLGGDIGWFLPGQLGGAMTNSERNPRRDWVEIPITGALIDHPDARILFDTGIAPDAMKTHERGLMEAFPITKMDDQNHIENQLKLIGLKPEDIDFVVISHLHLDHIGQAAVFKDSHVPIIVQKKELESALSLIWQGKSGAYDYSDLLPLKGAAWMPLDDPVFEIVDGVYAEFTGGHTAGHQVLTVKTEKGSMYTLTGDFLHLPKEYDVEAKGWLLSNATEWNSYIKKMKIREKARKQKLIISHDPGIWDKYPHAPKFVE”, the “soluble on expression in E. coli” value was “not soluble”.
For “MGSDKIHHHHHHMPDKSLKKPFVHLIGAGPGDPGLITVKGRESLGRADVVIYDYLANDDLLRFARPDAELIYAGKIGGHHNREQWQINALLVEKALAGNVVARLKGGDSFVFGRGGEECEALVAAGIPFEIVPGVTAGIGVTAYAGIPLTHRGVTTSVTFVTGHEGHDKEVSQIDWEGLSLGSGTVVFYMGIKNLPQITANLMAHGRPPETPVALIRWGTRPEQEVLTGTLADIAEQARRTGFRAPAITVVGEVVRLREKLRWFDNRPLFGTSILVTRAADQAGEFGAMLGALGARVLECPTIAIVPPESWDNLDAAIASLDRFHWAVFTSVNAVRFFFERLAAAGKDSRALGNCRVCAVGPKTAAALAPFGIRPDLIPADYKGEGVVEVFRSEEIAGKRIIFPKGDRARDVIPQGLAELGGEVTAPVAYRNVTPDSLPAGVIAELEERRITCVTFTSSSTVENLAAILGENRFLHLLKGVTIAAIGPITARTCRELGLEVHVEPSKYTLAAMTDALVDFFSRSK”, the “soluble on expression in E. coli” value was “not soluble”.
With “MGSDKIHHHHHHMPEILINKPVEDELVESYLLYSMSVIVGRAIPDVRDGLKPVQRRILYGMYELGLKHNSPTKKSARIVGEVMGKYHPHGDAPVYDALVRMAQPFTMRYPLIEGQGNFGSIDRDPPAAMRYTEARLTRLAEEMLEDIEKNTVNMIDNFDGTLKEPEVLPSKVPNLIINGASGIAVGMATNIPPHNLSETVDALIYLIDHPEATVEELMQFIKGPDFPTGAVVVNASELKKVYEEGRGRIIVRGKVHVEDGKRVKRIVITEIPYGVSKAGLIEQIAKIAKDDESLPIRNIRDESDKRGMRIVIEIPKDANEEVIINNLYKRTALQDYFNVQMLVIDKHKRPRLMNLKGLMEAFLEHRFEVIRRRARYEYEQYTRRAHVVEGLLKAARAIGVVVDIVRNSKDVESARQSLMETLEITEEQAKAILDMRLSRLTSLEIENLQNEYSDLVRKISEVKEILEKDEKVKEIMKKEFLYLKQQYGDPRRTEVTDQSIEYNEEELIVEEDVVITLSHKGYLKSTPLNSYRSQKRGGKGITVSKLSEDDEVEFVVVAKNTSSTLFITNLGRAYVLKNYQLETTGRNTRGRHITAFLNLEDTEKIVALASLNGEGRDLVIATKSGKIKRTALKEFENATSNRGVRAIKIEPGDEIVSARVVNSEKETLIVATKMGMAIRFPVSDVRRMGRNAAGVQAIKLQPGDEVVSVDVIPPGEEGEILTVTEKGFGKRTPVQLYRIQRRGGTGLRNISDVNKTGYVVAVRYVRGDEEIVVVTRNGMMIRFPVSEIGVIGRVTKGVKLIELGDDTISKVAVVKD” the “soluble on expression in E. coli” value was “not soluble”.
For “MGSDKIHHHHHHMPFITKISTQKKNTERFNIFLDDKYAFSVDADVLVKFELKKGKELDDLDIIEIQYGDEVKKGFNRALDFLSYRMRSTKEVEDHLKKKETSPPVIAEVIHRLNDYKYLNDQEFAAAYVSTHKKTNGKGPDVLFRELRAKGIDDDTIKEALSSFSFEDQTREAVKHVEKLLKKDKKLSTKELKQRAQLQLQRKGFSFDVISAAMDQIEYENDEDTEKEALRLHAEKAFRKYRYDGSYESAMKVKQFLFRKGFSLDLIEQLLQEEEY”, the “soluble on expression in E. coli” value was “not soluble”.
For “MGSDKIHHHHHHMPGSQQSLPLAMVRGQALNSMPVDLFIPPEALEVFLETFEGPLDLLLYLIRKQKLDVVDLPIQQITQQYLLYIEILTEARIELAADYLVMAATLAEIKSRLLLPKMASEDDEEEDPRVVLIRQLKAYEVIKQAAVDIDTLPRIERDVFQASVSAAPDIKPITVPPEVSLVDIARAFGEVLKRIDANEDHHVKREHLSTRERMSQILAKLSSTEYIGFECLFDVSEGRAGVVVSFLALMELVKELLVELVQNEPFSPIYVKAY”, the “soluble on expression in E. coli” value was “not soluble”.
In the case of “MGSDKIHHHHHHMPIDEWLVLNRIGIFENPSLRRYVSPFPPPELMGITSGLQSETGFAAHGADIYAALALASTIPITEYRHILDFGCGCGRLARMLKGHPHKISGCDIDLRHVKWIGQSLDFMNVKLSSVRPPIPFADDEMDAVISVSIFTHLTENSQDDFLAELFRVTRPGGTLFLTVHGAQALKRACHEQPIRHMLDMDEGRFRKAQQAFNQNKHGFVLQFGHLTTKPEKAFYTPRAIFRRIRDSFSRKTINMPFEYGIAFHPESYIREHWSKWFDILDYRHGAIHQFQDIVVLSPKK”, the “soluble on expression in E. coli” value is reported as “not soluble”.
In the case of “MGSDKIHHHHHHMPIKVSPVAGSRFYIGSAPVDVPDTDVTEADFSAVTWIEVGQYETMGNSGDSAQGNTVNLLNRRRTYNWKGSRQAPQRSDNFALNTSDPGQLAMIAAEATDFNYPFKVELNGAPIPKSATAIITIASPGVVTWTGHNLAANTAVKFSTTGALPTGLTAGTSYYVKTVLDADTFTLSATKGGPVIATTGTQSGTHTATTIPSGPQRLFMGQVLAAEEGMGGANNAQMLNCTVLPNTNYVRVAALG”, the “soluble on expression in E. coli” value is reported as “not soluble”.
For “MGSDKIHHHHHHMPLERLNFLGLRNLAALDMRPGPGINLITGANGSGKTSLLEGMHVLGMARSFRTQKLKHAIAHDADAVTLHGRVAGDPPVALGVRRARDASELEIRLDGERGVRVARLAEALPLQLINPDAFRLLEGSPAARREFLDWGVFHVKHEFFEAWRRVRRALKHRNALLRHDRIDARSMRVWEQELAHWSELLDALRSEYMAQFAKAFEDTLHELLPLSGLSLRYYRGWDKQRGLLEVLEGGRDTDRQMGFTQQGPQRADLRLRIGKRAAVEELSRGQQKLVVSALKLAQGRLLDELTGRTCVYLIDDLPAELDVTHRRIFCHWLERLRCQVFITSVEREALANAWQSETDVAMFHVEHGRLLTE”, the “soluble on expression in E. coli” value was “not soluble”.
In the case of “MGSDKIHHHHHHMPLLDIRNLTIELDTPEGTVKVLEKVSLTINPGEIHGLVGESGSGRSLLAKAILGVLGPNWHIIADRMMWDGKNLLEMSSKQRRCLMGSEMAMIFQDPSGSLDPVKTIGSQLIEAMVPNKNIPFWRRGKATYLNAQKWLHKVGIKKPKQLMKCYPWELSEGECQKVMIAMAVANHPKLLIADEPTNSMELNTQAQIFRLLSQLNQLQNVSILLVSHELETMVHWCDNLTILYSGQVMESGPVSEMVAMPYHPYTRALLKNLPDHTEKMRHKANLPTLQGSSPSLQHLPAGCRLGPRCPEAQRQCVKQPNLEHIKDRYFACHFPYQSEQEDDDAIA”, the “soluble on expression in E. coli” value is reported as “not soluble”.
In the case of “MGSDKIHHHHHHMPLLIDIRKLTLITRLIQDGAEQVADSLATLAGVDAAVEIKSLSFVQPEDIATEMGGGTIYSARVRLTEPPYGVFLMTFETETAAEIAELMTGSSVEDGFTQLHESALQEMCNILTSGFIDGIANTLNATINMGTPTVVQDDATEIADKALSHVRRDSLTIVLDSLVDIKESDVAFSLRIFLIPDPGSFVHLIDQLDYDTDRETHISADTDAVKELDMSGDADALDAFDSSK”, the “soluble on expression in E. coli” value is reported as “not soluble”.
In the case of “MGSDKIHHHHHHMPLTRERTDMSNLLSISDLSITFDNGPRVVDGLSFSIDKGQTLALVGESGSGKSVSALSILRLLDERHAAYPAGHILYKGEDLLQAQEKRLRQIRGRHISMIFQEPMTSLNPLHTVEKQISETLELHKGMRGPQARKRCLELLELVGIPAPETRLKSYPHQLSGGQKQRVMIAMALANEPDLLIADEPTTALDVTVQKQVLELLKSLQQKLGMAVLLITHDLSIVRRYADYVVVMERGKMVEQGATETLFRSPSHTYTRKLIDAEPPEHPLPAANGTETLMTVDNVNVHFPIRKTMLGKVKESFHAVQDASFELRAGETLGIVGESGSGKTTLGHALLKLTPSTGTFSLCGTELSALSQKAFRPWRRRVQIVFQDPFGSLSPRMSVEEIIREGLEIHEPGSSGQHEARVIQALKDVGLDPDARHRYPHEFSGGQRQRIAIARALVLQPDLMILDEPTSALDRTVQKQVIELLREIQARYRLSYIFISHDLAVVRALSHKLLVLRQGRIVEYGDAETIFREPQQPYTRELLNAAFFYQSTTN”, the “soluble on expression in E. coli” value is reported as “not soluble”.

— the DeepSol protein solubility set
